Earlier results as cited in publication PMC10845085.

Molecular target: Neurotensin (Homo sapiens) (UniProt P30990)

Kd: 6 nM
Substance: Neurotensin receptor 2 (from UniProt O95665)
